B1: Protein Rep68 (Adeno-associated virus 2 (isolate Srivastava/1982)), P03132 (parent)
chain: MPGFYEIVIKVPSDLDGHLPGISDSFVNWVAEKEWELPPDSDMDLNLIEQAPLTVAEKLQRDFLTEWRRVSKAPEALFFVQFEKGESYFHMHVLVETTGVKSMVLGRFLSQIREKLIQRIYRGIEPTLPNWFAVTKTRNGAGGGNKVVDECYIPNYLLPKTQPELQWAWTNMEQYLSACLNLTERKRLVAQHLTHVSQTQEQNKENQNPNSDAPVIRSKTSARYMELVGWLVDKGITSEKQWIQEDQASYISFNAASNSRSQIKAALDNAGKIMSLTKTAPDYLVGQQPVEDISSNRIYKILELNGYDPQYAASVFLGWATKKFGKRNTIWLFGPATTGKTNIAEAIAHTVPFYGCVNWTNENFPFNDCVDKMVIWWEEGKMTAKVVESAKAILGGSKVRVDQKCKSSAQIDPTPVIVTSNTNMCAVIDGNSTTFEHQQPLQDRMFKFELTRRLDHDFGKVTKQEVKDFFRWAKDHVVEVEHEFYVKKGGAKKRPAPSDADISEPKRVRESVAQPSTSDAEASINYADRLARGHSL
partner: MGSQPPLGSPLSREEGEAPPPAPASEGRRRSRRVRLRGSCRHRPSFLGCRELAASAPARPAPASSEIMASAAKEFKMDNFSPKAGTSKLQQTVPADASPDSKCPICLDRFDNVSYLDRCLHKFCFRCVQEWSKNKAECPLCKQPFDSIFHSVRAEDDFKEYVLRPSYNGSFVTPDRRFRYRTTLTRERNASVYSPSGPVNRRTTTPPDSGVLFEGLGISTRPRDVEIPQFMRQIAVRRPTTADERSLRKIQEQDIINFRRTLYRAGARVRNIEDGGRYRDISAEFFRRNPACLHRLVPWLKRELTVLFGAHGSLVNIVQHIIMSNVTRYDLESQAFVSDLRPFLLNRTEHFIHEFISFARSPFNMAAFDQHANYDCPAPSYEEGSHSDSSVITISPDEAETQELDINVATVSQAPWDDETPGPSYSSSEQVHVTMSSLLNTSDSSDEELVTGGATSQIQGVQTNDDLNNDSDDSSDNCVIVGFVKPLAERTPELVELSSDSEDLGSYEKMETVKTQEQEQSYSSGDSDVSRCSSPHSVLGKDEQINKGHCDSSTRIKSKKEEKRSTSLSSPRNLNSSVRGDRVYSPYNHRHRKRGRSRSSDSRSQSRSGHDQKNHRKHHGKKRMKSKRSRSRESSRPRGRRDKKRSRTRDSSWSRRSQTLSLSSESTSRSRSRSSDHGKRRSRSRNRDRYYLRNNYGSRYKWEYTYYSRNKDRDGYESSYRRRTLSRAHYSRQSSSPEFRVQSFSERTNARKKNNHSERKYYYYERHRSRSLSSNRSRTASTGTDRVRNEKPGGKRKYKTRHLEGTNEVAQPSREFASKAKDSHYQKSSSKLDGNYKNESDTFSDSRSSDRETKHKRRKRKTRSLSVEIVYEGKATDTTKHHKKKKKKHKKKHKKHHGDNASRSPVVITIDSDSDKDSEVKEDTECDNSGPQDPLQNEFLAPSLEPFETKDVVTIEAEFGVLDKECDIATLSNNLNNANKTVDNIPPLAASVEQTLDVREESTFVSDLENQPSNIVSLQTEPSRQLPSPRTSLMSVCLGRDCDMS

Variants of: B1
Details: with toprs_human TOPORS

Row | Variant | effect of a mutation on the interaction
1 | MPGFYEIVIKVPSDLDGHLPGISDSFVNWVAEKEWELPPDSDMDLNLIEQAPLTVAEKLQRDFLTEWRRVSKAPEALFFVQFEKGESYFHMHVLVETTGVKSMVLGRFLSQIREKLIQRIYRGIEPTLPNWFAVTKTRNGAGGGNKVVDECYIPNYLLPKTQPELQWAWTNMEQYLSACLNLTERKRLVAQHLTHVSQTQEQNKENQNPNSDAPVIRSKTSARYMELVGWLVDKGITSEKQWIQEDQASYISFNAASNSRSQIKAALDNAGKIMSLTKTAPDYLVGQQPVEDISSNRIYKILELNGYDPQYAASVFLGWATKKFGKRNTIWLFGPATTGHTNIAEAIAHTVPFYGCVNWTNENFPFNDCVDKMVIWWEEGKMTAKVVESAKAILGGSKVRVDQKCKSSAQIDPTPVIVTSNTNMCAVIDGNSTTFEHQQPLQDRMFKFELTRRLDHDFGKVTKQEVKDFFRWAKDHVVEVEHEFYVKKGGAKKRPAPSDADISEPKRVRESVAQPSTSDAEASINYADRLARGHSL [K340H] | increasing interaction
